Measured values: the supplement of paper PMC7877785
± gives the uncertainty stated by the source.

Assay: self-splicing fitness, log relative to wild type (ln ratio); higher = more splicing; Tetrahymena group I intron in knt gene, E. coli kanamycin selection, DiMSum; sequences stand for … in CUCUCU…GGAGGGAAAAGUUAUCAGGCAUGCACCUGGUAGCUAGUCUUUAAACCAAUAGAUUGCAUCGGUUUAAAAGGCAAGACCGUCAAAUUGCGGGAAAGGGGUCAACAGCCGUUCAGUACCAAGUCUCAGGGGAAACUUUGAGAUGGCCUUGCAAAGGGUAUGGUAAUAAGCUGACGGACAUGGUCCUAACCACGCAGCCAAGUCCUAAGUCAACAGAUCUUCUGUUGAUAUGGAUGCAGUUCACAGACUAAAUGUCGGUCGGGGAAGAUGUAUUCUUCUCAUAAGAUAUAGUCGGACCUCUCCUUAAUGGGAGCUAGCGGAUGAAGUGAUGCAACACUGGAGCCGCUGGGAACUAAUUUGUAUGCGAAAGUAUAUUGAUUAGUUUUGGAGUACUCGUGGUCG
Method in brief: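 A randomised library covering all eight P1ex-region intron nucleotides was built with the intron in the knt kanamycin-resistance gene on pET-22b(+) and held in E. coli BL21(DE3). Cells were grown overnight at 37°C or 30°C on LB agar, with or without 25 μg/mL kanamycin, plus 100 μg/mL carbenicillin, 50 μM IPTG and 0.2% rhamnose, and pooled colonies were amplicon-sequenced on an Illumina HiSeq 2500. DiMSum fitness is the error-weighted combination of wild-type-normalised replicate fold changes, kanamycin versus none.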

Sequence	self-splicing fitness (ln) (30 °C)	self-splicing fitness (ln) (37 °C)
GACGAGCAAUAUUACGCUUU	-3.17 ± 0.46	-0.0656 ± 0.19
GACGAGCAAUAUUACGGAAA	-2.69 ± 0.3	-1.47 ± 0.29
GACGAGCAAUAUUACGGCCC	-0.0683 ± 0.45	-0.45 ± 0.4
GACGAGCAAUAUUACGGGGC	-2.83 ± 0.13	-2.25 ± 0.16
GACGAGCAAUAUUACGGUCU	-2.33 ± 0.15	-2.8 ± 0.27
GACGAGCAAUAUUACGGUGG	-3.01 ± 0.16	-2.77 ± 0.19
GACGAGCAAUAUUACGGUGU	-4.63 ± 0.45	-2.64 ± 0.22
GACGAGCAAUAUUACGUGUG	-2.9 ± 0.087	-1.01 ± 0.077
GACGAGCAAUAUUACGUUAU	-4.17 ± 0.39	-2.36 ± 0.31
GACGAGCAAUAUUACGUUUC	-2.64 ± 0.24	-3.33 ± 0.33
GACGAGCAAUAUUACGUUUU	-4.36 ± 0.28	-1.61 ± 0.13
GACUAGCAAUAUUACGAAGA	-1.87 ± 0.13	-0.416 ± 0.13
GACUAGCAAUAUUACGACCG	-0.436 ± 0.3	-0.537 ± 0.34
GACUAGCAAUAUUACGACGA	-0.416 ± 0.074	0.00653 ± 0.078
GACUAGCAAUAUUACGAGGU	-2.34 ± 0.2	-1.64 ± 0.2
GACUAGCAAUAUUACGAGUU	-4.75 ± 0.32	-2.74 ± 0.3
GACUAGCAAUAUUACGAUAU	-0.566 ± 0.075	-0.0805 ± 0.1
GACUAGCAAUAUUACGCAAU	-1.34 ± 0.19	-1.38 ± 0.17
GACUAGCAAUAUUACGCCCG	-1.77 ± 0.24	-0.58 ± 0.28
GACUAGCAAUAUUACGCGUA	-0.78 ± 0.11	-0.344 ± 0.097
GACUAGCAAUAUUACGGCAC	-0.648 ± 0.14	0.581 ± 0.16
GACUAGCAAUAUUACGGCCC	–	0.226 ± 0.4
GACUAGCAAUAUUACGGGCA	-0.911 ± 0.072	0.2 ± 0.085
GACUAGCAAUAUUACGUCGA	-1.96 ± 0.11	-0.484 ± 0.1

Sequence	self-splicing fitness (ln) (30 °C)	self-splicing fitness (ln) (37 °C)
GACUAGCAAUAUUACGUCUU	-0.971 ± 0.099	-1.39 ± 0.15
GACUAGCAAUAUUACGUGUC	-2.59 ± 0.42	–
GACUAGCAAUAUUACGUGUU	-2.22 ± 0.11	-2.07 ± 0.17
GACUAGCAAUAUUACGUUAC	-2.46 ± 0.19	-1.84 ± 0.22
GACUAGCAAUAUUACGUUCC	-3.69 ± 0.3	-2.17 ± 0.23
GAGAAGCAAUAUUACGAACA	-1.05 ± 0.17	-1.57 ± 0.2
GAGAAGCAAUAUUACGACUU	-1.9 ± 0.14	-1.14 ± 0.14
GAGAAGCAAUAUUACGAUAU	-2.18 ± 0.16	-0.855 ± 0.15
GAGAAGCAAUAUUACGAUUC	-0.752 ± 0.094	-0.653 ± 0.15
GAGAAGCAAUAUUACGAUUU	-0.24 ± 0.081	0.493 ± 0.087
GAGAAGCAAUAUUACGCAGU	-3.98 ± 0.23	-2.06 ± 0.17
GAGAAGCAAUAUUACGCCGA	-2.1 ± 0.24	-0.228 ± 0.17
GAGAAGCAAUAUUACGCCUG	-0.32 ± 0.098	-0.385 ± 0.17
GAGAAGCAAUAUUACGCGCG	-0.394 ± 0.14	0.218 ± 0.16
GAGAAGCAAUAUUACGCGGU	-2.38 ± 0.16	-0.663 ± 0.16
GAGAAGCAAUAUUACGCUCG	-1.07 ± 0.14	0.735 ± 0.18
GAGAAGCAAUAUUACGGAGA	-3.8 ± 0.24	-2.04 ± 0.28
GAGAAGCAAUAUUACGGGCA	-0.782 ± 0.1	-0.441 ± 0.087
GAGAAGCAAUAUUACGGUAU	-1.67 ± 0.096	-1.79 ± 0.17
GAGAAGCAAUAUUACGGUUA	-1.13 ± 0.12	-0.315 ± 0.13
GAGAAGCAAUAUUACGUAUG	-2.37 ± 0.14	-1.29 ± 0.14
GAGAAGCAAUAUUACGUAUU	-3.16 ± 0.14	-3.08 ± 0.23
GAGAAGCAAUAUUACGUCGU	-2.16 ± 0.075	-0.855 ± 0.077
GAGAAGCAAUAUUACGUGCA	-0.762 ± 0.084	-0.666 ± 0.094
